Source: publication PMC7072198, “An Epitope on EGFR Loading Catastrophic Internalization Serve as a Novel Oncotarget for Hepatocellular Carcinoma Therapy” (Cancers, 2020)

Biological target: T1, EGFR extracellular domain (ECD), wild type (human, UniProt P00533 25-645)
T1 construct: Epidermal growth factor receptor, human, extracellular domain; The Biacore legend and methods say only 'recombinant human EGFR' / 'EGFR protein'; also called EGFR ECD; EGFR ectodomain
Assay: ITC; MicroCal VP-ITC; nineteen 3 μL aliquots of 400 μM rLZ-8 injected into 20 μM EGFR ectodomain; single site binding model
Settings: both partners purified

B1: recombinant Lingzhi-8 (rLZ-8), wild type (natural protein, Ganoderma lucidum, UniProt P14945 1-111, looked up)
chain: MSDTALIFRLAWDVKKLSFDYTPNWGRGNPNNFIDTVTFPKVLTDKAYTYRVAVSGRNLGVKPSYAVESDGSQKVNFLEYNSGYGIADTNTIQVFVVDPDTNNDFIIAQWN
notes: Lingzhi-8 (LZ-8) from Ganoderma lucidum, codon-optimised synthetic gene; Fluorescently labelled (red/green) in the cell experiments; also called rLZ-8^wt; source: Pichia pastoris X33 (pGAPZα A vector), culture supernatant, purified
stoichiometry N: 2 rLZ-8 per EGFR ECD
